Data taken from the nanobody polyreactivity screen of Harvey et al. (2022).

Assay: yeast display, Sf9 membrane polyspecificity reagent, FACS + sequencing; frameworks hold sequencing errors
How it was run: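 Synthetic nanobody libraries on Saccharomyces cerevisiae BJ5465 were galactose-induced for 36–48 hours, stained 1 hour at 4 °C with 10% biotinylated, detergent-solubilized Sf9 membrane reagent and enriched on streptavidin microbeads. FACS then separated cells into low and high (top ~1%) gates by anti-HA (expression) and streptavidin (reagent binding) fluorescence. Genes were colony-PCR amplified, MiSeq 2 × 250 sequenced and CDR-length filtered. A clone's polyreactivity label is that of its gate of origin.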

| Sequence | polyreactivity (PSR sort gate) |
| --- | --- |
| QVQLVESGGGLVQAGGSLRLSCAASGIFRSNARGWYRQAPGKERELVAGISSGGGTNYADSVKGRFTISRDNAKNTVYLQMNSLKPEDTAVYYCAKERIYFDYWYVYTDLVYEYDYWGQGSQVTVSS | low polyreactivity |
| QVQLVESGGGLVQAGGSLRLSCAASGIFSYYAMGWSRQAPGKERELVAAISWSGGSTYYADSVKGRFTISRDNAKNTVYLQKNSLKPEDTAVYYCNKAYLTSQPRLGYWGQGTQVTVSS | high polyreactivity |
| QVQLVESGGGLVQAGGSLRLSCAASGIFWANTMEWYRQAPGKERELVAAISWSGDRTYYADSVKGRFTISRDNAKNTVYLQMNSLKPEDTAVYYCAAEGTGLQRYGYFGDDGYWGQGTQVTVSS | low polyreactivity |
| QVQLVESGGGLVQAGGSLRLSCAASGIIFAANAMGWYRQAPGKELELVAAISKNGGITYYADSVKGRFTISRDNAKNTVYLQMNSLIPEDPAVYYCAARWRQTRRYYYWGQGSQVTVSS | high polyreactivity |
| QVQLVESGGGLVQAGGSLRLSCAASGIIFAANAMGWYRQAPGKERELVAAISKNGGITYYADSVKGRFTISRDNAKNTVYLQMNSLKPEDTAVYYCAAKLSRRYYYWGQGTQVTVSS | high polyreactivity |
| QVQLVESGGGLVQAGGSLRLSCAASGIIFADYDMGWYRQAPGKERELVAAITGSGGSTYYADSVKGRFTISRDNEKKTVYLQMNSLKPEDTAVYYCAADYAYSYGYHYGYWGQGTQVTVSS | high polyreactivity |
| QVQLVESGGGLVQAGGSLRLSCAASGIIFAGNAMGWYRQAPGKERELLAVITSGGSTYYADSVKGRFTISRDNAKNTVFLQINSLIPEDTAVYYCNKVYYAYRVSLYSYGYWGQGTQVTVSS | high polyreactivity |
| QVQLVESGGGLVQAGGSLRLSCAASGIIFAGNAMGWYRQAPGKERELVAVITSGGSTYYADSVKGRFTISRDNAKNTVYLQMNSLKPEDTAVYYCNKVYYAYRVSLYRYGYWGQGTQVTVSS | high polyreactivity |
| QVQLVESGGGLVQAGGSLRLSCAASGIIFAGYAMGWYRQAPGKERELVADITSSGTSTYYADSVKGRFTISRDNAKNTVYLQMNSLKPEDTAVYYCAADDPRKNFTILDYLYDYWGQGTQVTVSS | low polyreactivity |
| QVQLVESGGGLVQAGGSLRLSCAASGIIFAIYAMGWYRQAPGKERELVAAITWRGGSTYYADSVKGRFTISRDNAKNTVYLQMNSLKPEDTAVYYCAAVTKSLYGYDYWGQGSQVTVSS | low polyreactivity |
| QVQLVESGGGLVQAGGSLRLSCAASGIIFAKYAMGWYRQPPGKERELVASISRPGGSTYYADSVKGRFTISRDNAKNTVYLQMNSLKPEDTAVYDCNAPGLRDYDAEYDYWGQGTQVTVSS | high polyreactivity |
| QVQLVESGGGLVQAGGSLRLSCAASGIIFANNAMGWYRQAPGKERELVARISRSGGGTYYADSVKGRFTISRDNAKNTVYLQMNSLKPEDTAVYYCNAESSYYYGTAAYEYWGQGTQVTVSS | low polyreactivity |
| QVQLVESGGGLVQAGGSLRLSCAASGIIFANYAMGWYRQAPGKERELVAAITYSGGGTYYADSVKGRFTISRDNAKNTVYLQMNSLKPEDTAVYYSAAEYFYRWYYFPYGYWGQGTQVTVSS | high polyreactivity |
| QVQLVESGGGLVQAGGSLRLSCAASGIIFARNAMGWYRQAPGKERELVATISRNGGRTYYADSVKGRFTISRDNAKNTVYLQMNSLKPEDTAVYYCAAGFYLRAVWMDYWGQGTQVTVSS | high polyreactivity |
| QVQLVESGGGLVQAGGSLRLSCAASGIIFASNAMGWYRQAPGKERELVAAISGSGGRTYYADSVKGRFTISRDTAKNTVYLQMNSLKPEDTAVYYCAAARANNYDYWGQGTQVTVSS | high polyreactivity |
| QVQLVESGGGLVQAGGSLRLSCAASGIIFATYAMGWYRQAPGKERELVASISTGDSTNYADSVKGRFTISRDNAKNTVYLQMNSLKPEDTAVYYCNADSYPYYVYGSNDYWGQGTQVTVSS | low polyreactivity |
| QVQLVESGGGLVQAGGSLRLSCAASGIIFAWYAMGWYRQAPGKERELVAAISGRGGRTYYADSVKGRFTISRDNAKNTVYLQMNSLKPEDTPVYYCNKDKSVIYDYWGQGTQVTVSS | high polyreactivity |
| QVQLVESGGGLVQAGGSLRLSCAASGIIFAYAMGWYRQAPGKERELVAAISGRDGSTYYADSVKGRFTISRDNAKNTVYLQMNSLKPEDTAVYYCAKRISYLPVEMDYWGQGTQVTVSS | low polyreactivity |
| QVQLVESGGGLVQAGGSLRLSCAASGIIFAYNAMGWYRQAPGKERELVAAISVIGGTTYYADSVKGRFTISRDNAKNTVYLQMNSLKPEDTAVYYCAVDSVQYGGGYERLHELYYWGQGTQVTVSS | low polyreactivity |
| QVQLVESGGGLVQAGGSLRLSCAASGIIFAYNTMGWYRQAPGKARELVAAITYRGGRTYYADSVKGRFRISRDNAKNTFYLQMNSLKPEDTAVYYCAAGRGVYSYGYNYWGHGTQVTVSS | high polyreactivity |
| QVQLVESGGGLVQAGGSLRLSCAASGIIFAYYAMGRSRQAPGKEMEFVAGISCSGSSTNYADSVKGRFTISRDNAKNTVYFQMNSLKPEDTAVYYCAARSRRYHRTKPKYDYWGQGTQVTVSS | high polyreactivity |
| QVQLVESGGGLVQAGGSLRLSCAASGIIFAYYAMGWYRQAPGKERELVASISSGGTTKYADSVKGRFTISRDNAKNTVYLQMNSLKPEDTAVYYCAAEHRWRSWDMDYWGQGTQVTVSS | low polyreactivity |

| Sequence | polyreactivity (PSR sort gate) |
| --- | --- |
| QVQLVESGGGLVQAGGSLRLSCAASGIIFDDYAMGWYRQAPGKERELVAAITTSGGRTYYADSVKGRFTISRDNAKNTVYLQMNSLKPEDTAVYYCATRRGRAYRWMNYWGQGTQVTVSS | high polyreactivity |
| QVQLVESGGGLVQAGGSLRLSCAASGIIFDEYAMGWYIQAPGKERELVAAITRDGGTNYADSVKGRFTISRDNAKNTVYLQMNSLKPEDTAVYYCAKRAYFYYGRYDYWGQGTQVTVSS | low polyreactivity |
| QVQLVESGGGLVQAGGSLRLSCAASGIIFDFYAMGWYRPAPGKERELVAAITSSGGSTYYADSVKGRFTISRDNAKNTVYLQMNSLKPEDTAVYYCAAEYTIYGTDQRYNYWGQGTQVTVSS | low polyreactivity |
| QVQLVESGGGLVQAGGSLRLSCAASGIIFDPYAMGWYRQAPGKERELVADIDNASSTYYADSVKGRFTISRDNAKNTVYLQMNSLKPEDTAVYYCAADLWYGGEYWGQGTQVTVSS | low polyreactivity |
| QVQLVESGGGLVQAGGSLRLSCAASGIIFDQNVMGWYRQAPGKERELVAAIRQTGGSTYYADSVKGRFTISRDNAKNTVYLQMNSLKPEDTAVYYCNAKPPGWFWGGFSYNRYYYWGQGTQVTVSS | low polyreactivity |
| QVQLVESGGGLVQAGGSLRLSCAASGIIFDTNAMGWYRPAPGKERELVAAITRSGGGTYYADSVKGRFSISRDNAKNTVYLQMNSLKPDDTAVYYCAARRQRDRYGYWGQGTQLTVSS | high polyreactivity |
| QVQLVESGGGLVQAGGSLRLSCAASGIIFDWYDMGWYRQAPGKERELVATITSDDGTNYADSVKGRFTIARDNAKNTVYFQLNSLKPEDTAVYYCAKRLIPSLPILQKMDYWGQGTQVTVSS | low polyreactivity |
| QVQLVESGGGLVQAGGSLRLSCAASGIIFDYYAMGWYRQAPGKERELVASISWSGGGTYYADSVKGRFTISRDNAKNTVYLEMNSLKPEDTAVYYCAADGSTVNAPRWSDPYDYWGQGTQVTVSS | low polyreactivity |
| QVQLVESGGGLVQAGGSLRLSCAASGIIFEFYAMGWYRQAPGKEREFVAAISKNGGRTYYADSVKGRFTISRDNAKTSVYLQLNSLKPEDTAVYYCDARYRPQANKYYYWGQGTQVTVSS | high polyreactivity |
| QVQLVESGGGLVQAGGSLRLSCAASGIIFENYAMGWYRQAPGKERELVAAISAGGAITYYADSVKGRFTISRDNAKNTVYLQMNSLKPEDTAVYYCNAKSYRHLLYIPYKYNYWGQGTQVTVSS | high polyreactivity |
| QVQLVESGGGLVQAGGSLRLSCAASGIIFEPNAMGWYRQAPGKERELVAAIDSGGITYYADSVKGRFTISRDNAKNTVYLQMNSLKPEDTAVYYCAAEAVVVTKYRYWTYGLYDYWGQGTQVTVSS | high polyreactivity |
| QVQLVESGGGLVQAGGSLRLSCAASGIIFEPYAMGWYRQAPGKERELVASIRWSDGSTFYADSVKGRFTISRDNAKNTVYLQMNSLKPEDTAVYYCNAVYEHRRVGWVTIDYGYWGQGSQVTVSS | low polyreactivity |
| QVQLVESGGGLVQAGGSLRLSCAASGIIFESYSMGWYRQAPGKERELVAAISWDGGSTYYADSVKGRFTISRDNAKNTVYLQMNSLKPEDTAVYYCAAESYGIYDGYDYWGQGTQVTVSS | high polyreactivity |
| QVQLVESGGGLVQAGGSLRLSCAASGIIFEYYAMGWYRQAPGKEWELVAAITDDGVVTYYGDSVKGRFTISRDNAKNTVYLQMNSLKPEDTAVYYCAAESYWTATYTYDYWGQGTQVTVSS | high polyreactivity |
| QVQLVESGGGLVQAGGSLRLSCAASGIIFFLYAMGWYRQAPGKERELVAAISSGGSTYYADSVKGRFTISRDNAKNTVYLQMNSLKPEDTAVYYCAVVGYASRYEKYYYWGQGTQVTVSS | high polyreactivity |
| QVQLVESGGGLVQAGGSLRLSCAASGIIFFRYAMGWYRQAPGKEREWVAGISGSGGSTYYADSVKGRFTMSRDNAKNTVYLQMNSLKPEDTAVYYCAKRYYRPVPGGYYWGQGTQVTVSS | high polyreactivity |
| QVQLVESGGGLVQAGGSLRLSCAASGIIFGDKAMGWYRQAPGKERELVAAITIGGTSTYYADSVKGRFTISRDNAKNTVYLQMNRLKPEDTAVYYCAKTILYDCDYWGQGTQVTVSS | low polyreactivity |
| QVQLVESGGGLVQAGGSLRLSCAASGIIFGDNGMGWYRQAPGKERELVAVITSGDGTNYADSVKGRFTISRDNANNTFYLQMNSLKPEDTAVYYCAADFRIVVYGWGGSHMDYWGKGTQVTVSS | low polyreactivity |
| QVQLVESGGGLVQAGGSLRLSCAASGIIFGGYAMGWYRQAHGKERELVARITSGGSTNYADSVKGRFTISRDNAKNTVYLQMNSLKPEDTAVYYCNARGGWSWRFYYWGQGTQVTVSS | high polyreactivity |
| QVQLVESGGGLVQAGGSLRLSCAASGIIFGKNAMGWYRQAPGKERELVAAISRRGGGTYYADSVKGRFTISRDNAKNTVYLQMNSLKPEDTAVYYCAVKVGYVRLLYHYYYWGQGTQVTVSS | high polyreactivity |
| QVQLVESGGGLVQAGGSLRLSCAASGIIFGPYAMGWYIQAPGKERELVAAITDGGITYYADSVKGRFTISRDNAKNTVYLQMNSLKPEDTAVYYCAAESGYPVYTYVSSGDYWGQGTQVTVSS | low polyreactivity |
